# Measurements published in patent US12023367B2, “Immunomodulation for the long term prevention and treatment of autoimmune diseases and foreign tissue rejection” (University of Louisville Research Foundation, Inc., priority 2015, dated 2024).
# How the values were obtained:
# [1] = biological target: streptavidin (Streptomyces avidinii, UniProt P22629); conditions: cited from earlier work
# [2] = biological target: avidin (Gallus gallus, UniProt P02701); conditions: cited from earlier work
# [3] = system: C57BL/6 mice; experiment: Mixed hematopoietic allogeneic chimerism after bone marrow transplantation, 100 cGy total body irradiation, with cyclophosphamide; conditions: mouse, in vivo
# Protocol: C57BL/6 mice were subjected to 100 cGy total body irradiation followed by intravenous transplantation of 30×10^6 unmodified (BMC) or the combination of SA-FasL and SA-IL-2 (mFasL/IL-2-BMC) one day later. […] All groups were treated i.p. with rapamycin (2 mg/kg) daily for 10 doses starting on day 6 pot-transplantation. The test group was also treated starting on day 6 post-transplantation with both soluble SA-FasL (sFasL; 500 ng/daily for 15 doses) and IL-2 (25,000 IU/daily for 7 doses). Percent donor chimerism at various times post-transplantation was assessed using peripheral blood lymphocytes with antibodies against donor class I MHC molecule in flow cytometry.
# The tissues were, processed into single cell suspension, stained with antibodies to the indicated cell surface markers, and analyzed using flow cytometry.
# [4] = system: STZ diabetic C57BL/6 mice; experiment: Intraportal allogeneic islet transplantation (BALB/c-to-C57BL/6), soluble SA-FasL; type: in vivo
# Protocol: FIG. 2. Survival of allogeneic islets transplanted intraportally with different treatment protocols. BALB/c islets were engineered with SA-FasL protein and transplanted intraportally into STZ diabetic C57BL/6 mice. Rapa was used daily at 0.2 mg/kg for 15 doses starting on day of transplantation. Soluble (s)FasL was used at the indicated dose and regimens.
# To further establish SA-FasL as a soluble biologic, we tested its immunomodulatory capacity for the prevention of allogeneic islets transplanted using a more stringent model of intraportal islet transplantation. The rationale for this model is twofold. First, intraportal islet transplantation is the only site practiced in the clinic. Second, intraportal islet transplantation provides a much more stringent model as compared to subrenal islet transplantation. […] Therefore, we used this model to test if SA-FasL can be developed as a soluble biologic for the prevention and treatment of type I diabetes and foreign graft rejection.
# [5] = system: NHP (rhesus monkey) PBMCs; experiment: Apoptosis of NHP PBMC T cells cultured with SA-FasL (Annexin V, flow cytometry); type: cell-based; conditions: Teff (CD3+CD28-Fas+) or T central (CD3+CD28+Fas+) memory; PBMCs from 3 NHPs
# Protocol: FIG. 3. SA-FasL induces apoptosis in nonhuman primate (NHP) Teff cells. NHP (rhesus monkey) PBMCs were cultured with SA-FasL and apoptosis was assessed using Annexin V by gating on CD3^+ T cells. Cells incubated with SA served as controls. Data is representative of PBMCs from 3 NHPs.
# Inasmuch as individuals with onset of autoimmunity have a large pool of activated and memory T cells, we asked if SA-FasL is capable of inducing apoptosis in such cells. For this purpose, we used nonhuman primate (NHP) peripheral blood lymphocytes (PBMCs). The PBMCs from 3 different NHPs were incubated with SA-FasL protein and apoptosis was assessed using flow cytometry.
# [6] = system: STZ diabetic C57BL/6 mice; experiment: Allogeneic islet transplantation under the kidney capsule (BALB/c-to-C57BL/6); type: in vivo
# Protocol: FIG. 1. Systemic immunomodulation with soluble SA-FasL synergizes with SA-FasL-engineered islets for long-term survival. BALB/c islets were engineered with SA-FasL (mSA-FasL) or SA control (mSA) proteins and transplanted under the kidney capsule of STZ diabetic C57BL/6 mice. Soluble (s)SA-FasL was administered i.p. at 2-5 μg/mouse on days 1, 3, 5, 7 post-transplantation. In selected groups rapamycin was used at 0.2 mg/kg daily for 15 days starting the day of transplantation.
# Treatment with soluble SA-FasL only under a short course of rapamycin was also effective, achieving >80% graft survival.
# [7] = system: C57BL/6 recipients of allogeneic BALB/c hearts; experiment: Cardiac allograft survival, BALB/c-to-C57BL/6 model; type: in vivo, mice; conditions: IL-2 7 doses or SA-FasL 15 doses i.p., no other manipulation
# From the text: We next tested if SA-FasL as a biologic can work as an immunomodulator to prevent rejection of vascularized solid grafts. Heart transplantation from BALB/c into C57BL/6 mice was used as a stringent allogeneic heart graft model.
# [8] = system: STZ diabetic C57BL/6 mice; experiment: Intraportal allogeneic islet transplantation, SA-FasL and IL-2; type: in vivo; conditions: soluble SA-FasL as monotherapy
# Protocol: BALB/c islets were transplanted intraportally into STZ diabetic age-matched males and females C57BL/6 mice.
# These islets were then immediately transplanted intraportally into diabetic mice (450-550 islets/mouse). Mice were then treated with the indicated proteins and doses. Animals were monitored for diabetes, and those with two consecutive daily measurements of ≥250 mg/dl blood glucose level were considered diabetic and confirmation of graft failure.
# [9] = system: Female NOD mice; experiment: Prevention of type 1 diabetes in NOD mice; type: in vivo
# Protocol: FIG. 5. Systemic treatment with SA-FasL protein delays the onset and incidence of Type 1 Diabetes in NOD. Female NOD mice were treated with the indicated agents at 10-week of age. Mice were then monitored for hyperglycemia by urine glucose test, which was confirmed by a blood glucose test. Mice with >200 mg/dl blood glucose levels were considered diabetic. Soluble (s)SA-FasL in PBS was used at 500 ng/injection intraperitoneally daily for 30 days. […] Female mice without any treatment were used as controls. In the SA-FasL only treatment group, 3 diabetic mice were treated with an additional 10 daily doses (black arrows) of SA-FasL soon after incidence of diabetes, resulting in temporary remission of hyperglycemia in ⅔ of those mice.
# Inasmuch as antigen-experienced cells express Fas receptor on their surface, systemic treatment with SA-FasL has potential to eliminate such cells and control/reverse T1D without a major effect on quiescent T cell repertoire. This notion was tested by treating 10-wk female NOD mice daily with 500 ng SA-FasL protein for 30 days. […] We next asked the question if SA-FasL will work in synergy with IL-2. […] Indeed, T regulatory cells express FasL on their surface and control T effector responses by direct elimination via Fas receptor or indirectly by eliminating Fas-expressing DCs.
# Chain of streptavidin (P22629 25-183): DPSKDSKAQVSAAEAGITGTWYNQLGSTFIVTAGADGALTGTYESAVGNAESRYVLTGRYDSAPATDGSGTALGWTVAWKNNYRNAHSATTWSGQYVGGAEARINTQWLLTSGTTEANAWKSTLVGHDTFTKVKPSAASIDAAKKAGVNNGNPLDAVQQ
# Chain of avidin (P02701 25-152): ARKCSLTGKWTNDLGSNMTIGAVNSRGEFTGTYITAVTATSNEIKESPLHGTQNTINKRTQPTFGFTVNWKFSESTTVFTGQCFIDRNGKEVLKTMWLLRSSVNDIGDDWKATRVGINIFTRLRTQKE
molecule,measurement,setting,value
O=C(O)CCCC[C@@H]1SC[C@@H]2NC(=O)N[C@@H]21 [biotin],affinity for streptavidin,[1],10^13 M^−1
same,affinity for avidin,[2],10^15 M^−1
O=P1(N(CCCl)CCCl)NCCCO1 (stereo not shown) [cyclophosphamide],establishment of mixed hematopoietic allogeneic chimerism,[3],acted synergistically
"SA-FasL: chimeric protein of core streptavidin and the extracellular domain of FasL (rat FasL without metalloproteinase site); used unbound, in soluble form (protein) RSDYKDDDDKGTITGTWYNQLGSTFIVTAGADGALTGTYESAVGNAESRYVLTGRYDSAPATDGSGTALGWTVAWKNNYRNAHSATTWSGQYVGGAEARINTQWLLTSGATEANAWKSTLVGHDTFTKVKPSAASSGGGGSGGGGSGEFIANPSTPSETKKPRSVAHLTGNPRSRSIPLEWEDTYGTALISGVKYKKGGLVINEAGLYFVYSKVYFRGQSCNSQPLSHKVYMRNFKYPGDLVLMEEKKLNYCTTGQIWAHSSYLGAVFNLTVADHLYVNISQLSLINFEESKTFFGLYKL",islet graft survival,"[4]; 4 doses of SA-FasL (2-5 μg/injection) i.v. or i.p. on days 1, 3, 5, 7, SA-FasL-engineered islets, intraportal",All BALB/c islets engineered with SA-FasL protein survived
same,mice that rejected the graft,"[4]; soluble FasL 1 μg injection daily for 20 days from day of transplantation, no islet engineering, intraportal",one out of six
same,day of graft rejection post-transplantation,"[4]; soluble FasL 1 μg injection daily for 20 days, the one rejecting mouse",80 days
same,toxicity,[4]; soluble biologic at therapeutic doses,without toxicity
same,apoptosis of T cells,[5],Almost all T cells expressing Fas underwent apoptosis
same,time of delayed rejection,"[6]; soluble SA-FasL 2-5 μg/mouse i.p. on days 1, 3, 5, 7, SA-FasL-islet grafts",~70 days
same,recipients with delayed rejection of allogeneic SA-FasL-islet grafts (fraction),"[6]; soluble SA-FasL 2-5 μg/mouse i.p. on days 1, 3, 5, 7 post-transplantation, SA-FasL-engineered BALB/c islets under kidney capsule",⅛
same,graft survival,"[6]; soluble SA-FasL only, under a short course of rapamycin",> 80%
same,"effect on cardiac graft survival, monotherapy",[7],moderate prolongation of the grafts
same,allogeneic islets whose rejection was prevented,[8],~60%
same,toxicity,[9]; 500 ng SA-FasL daily for 30 days,did not observe any sign of SA-FasL toxicity
same,onset and incidence of T1D vs controls,"[9]; 500 ng SA-FasL daily for 30 days, 10-wk female NOD",significantly delayed the onset and incidence of T1D
same,temporary remission of hyperglycemia (fraction of mice),[9]; 3 diabetic mice given additional 10 daily doses of SA-FasL soon after incidence of diabetes,⅔
